The values that follow come from paper PMC5551578 (The Journal of Experimental Medicine, 2017).

This assay has as its target T1, H1N1 HA (A/New Caledonia/20/1999), wild type (Influenza A virus A/New …, UniProt Q6WG00, strain).
T1 construct: also called H1 wt; source: provided by D. Lingwood
The assay can be described thus: ELISA.

B1: H5-Ab2 (antibody, V domains shown)
VH: EVQLVQSGAEVKKPGSSVKVSCRSSGGPFRSNAISWVRQAPGQGLEWMGGIIAVFGTVEYAQKFQGRVTITADDSRSTVYMELRSLRSDDTAFYYCASAHGYHNYGSRGYFVSWGQGTLVTVSS
VL: DIVMTQSPGTLSLSPGERATLSCRASQSVSSNYLAWYQQKLGQPPRLLIYGASSRATGIPDRFSGSGSGTDFTLTISRLEPEDYAVYYCQQYGSSPHTFGQGTKVEIK
Take B1: the binding result was “binds”.

B2: H5-Ab4 (antibody, V domains shown)
VH: EVQLVESGGGAVQPGRSLRLSCAVSGFTFSSYGMNWVRQAPGKGLEWVAVISYDGSNTYYADSVKGRFTISRDDSKNTLFLQMNSLRADDTAVYYCAKDFQLRLLRYFDWLSSPFDHWGQGTLVTVSS
VL: DIQLTQSPGTLSLSPGERATLSCRASQSIRSNFLAWYQQTPGQGPRLLIYGASSRATGIPDRFSGSGSGTDFTLTISGLEPEDFAVYYCQQYASSPQTFGQGTKVEIK
With B2, the binding result is given as “binds”.
